Experimental findings from patent publication US8008547B2, “Glyphosate-N-acetyltransferase (GAT) genes” (E.I. duPont de Nemours, priority 2000, dated 2011) are described below.

In general, Km refers to the concentration of substrate that gives half-maximal velocity.

The series can be described thus: Standard protocol for determination of kcat and KM (continuous spectrophotometric assay, Acetyl CoA hydrolysis at 235 nm). The format is biochemical. The conditions noted are these: purified protein, about 23° C., 0.2 mM acetyl CoA; for Kcat: 20 mM HEPES pH 6.8, 10% ethylene glycol; for Km: pH 6.8, glyphosate 0.125 to 10 mM. The method in brief:
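KM from initial rates over 0.125–10 mM glyphosate, fitted by Lineweaver-Burke transformation of Michaelis-Menten; kcat/KM computed as kcat divided by KM. Continuous spectrophotometric read of acetyl-CoA hydrolysis at 235 nm.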

B1: SEQ ID NO: 408: GAT polypeptide (protein)
chain: MIEVKPINAEDTYEIRHRILRPNQPLEACMYETDLLGGTFHLGGYYRGKLISIASFHQAEHPELEGQKQYQLRGMATLEEYREQKAGSTLIRHAEELLRKKGADLLWCNARTSASGYYKKLGFSEQGEVHDIPPVGPHILMYKKLT
modifications: 6_5F11
notes: GAT polypeptide
As for B1, the Kcat was 0.668 s⁻¹ and the Michaelis constant (Km) was found to be 1900 µM.

B2: SEQ ID NO: 424: GAT polypeptide (protein)
chain: MIEVKPINAEDTYEIRHRILRPNQPLEACMYETDLLGGTFHLGGYYRGKLVSIASFHQAEHPELEGQKQYQLRGMATLEGYREQKAGSTLIRHAEALLRKKGADLLWCNARTSASGYYKKLGFSEQGEVYDTPPVGPHILMYKKLT
modifications: 9_15D8
notes: GAT polypeptide
For B2, the Kcat came out at 1.788 s⁻¹ and the Km worked out at 1100 µM.

B3: SEQ ID NO: 414: GAT polypeptide (protein)
chain: MIEVKPINAEDTYEIRHRILRPNQPLEACMYETDLLGGTFHLGGYYRGKLVCIASFHKAEHSELEGQKQYQLRGMATLDGYREQKAGSTLIRHAEELLRKKGADLLWCNARTSVSGYYEKLGFSEQGEVYDIPPVGPHILMYKKLT
modifications: 6F1
notes: GAT polypeptide
Consider B3, for which the Kcat was found to be 0.168 s⁻¹ and the Km is 1800 µM.

B4: SEQ ID NO: 426: GAT polypeptide (protein)
chain: MIEVKPINAEDTYEIRHRILRPNQPLEACMYETDLLGGTFHLGGYYRGKLISIASFHQAEHPELVGQKQYQLRGMATLEGYREQKAGSTLIRHAEELLRKKGADLLWCNARTSASGYYKKLGFSEQGEVYDIPPVGPHILMYKKLT
modifications: 9_18H2
notes: GAT polypeptide
With B4, the Kcat was 0.417 s⁻¹ and the Km came out at 1100 µM.

B5: SEQ ID NO: 273: GAT polypeptide (protein)
chain: MIEVKPINAEDTYEIRHRILRPNQPLEACKYETDLLGGTFHLGGYYRGKLVSIASFHQAEHSELEGQKQYQLRGMATLEEYREQKAGSTLIRHAEELLRKKGADLLWCNARTSASGYYKKLGFSEQGGVYDIPPVGPHILMYKKLT
modifications: 10_18G9
notes: GAT polypeptide
Turning to B5, the Kcat is 0.4 s⁻¹ and the Km was 1200 µM.

B6: SEQ ID NO: 425: GAT polypeptide (protein)
chain: MIEVKPINAEDTYEIRHRILRPNQPLEACMYETDMLRGAFHLGGYYRGKLISIASFHQAEHPELEGQKQYQLRGMATLEEYHEQKAGSTLIRHAEELLRKKGADLLWCNARTSASGYYKKLGFSEQGEVYNTPPVGPHILMYKKLT
modifications: 9_15H3
notes: GAT polypeptide
B6: the Kcat worked out at 1.14 s⁻¹ and the Km was 1900 µM.

B7: SEQ ID NO: 412: GAT polypeptide (protein)
chain: MIEVKPINAEDTYEIRHRILRPNQPLEACMYETDLLGGTFHLGGYYRGKLISIASFHQAEHPELEGQKQYQLRGMATLEGYREQKAGSTLIRHAEELLRKKGADLLWCNARTSASGYYKKLGFSEQGGVYDIPPVGPHILMYKKLT
modifications: 6_8H3
notes: GAT polypeptide
As to B7, the Kcat stood at 0.745 s⁻¹ and the Km came out at 1000 µM.

B8: SEQ ID NO: 415: GAT polypeptide (protein)
chain: MIEVKPINAEDTYEIRHRILRPNQPLEACMYETDLLGGTFHLGGYYRGKLISIASFHQAEHPELEGQKQYQLRGMATLEEYREQKAGSTLIRHAEELLRKKGADLLWCNARTSASGYYKKLGFSEQGGVYDIPPIGPHILMYKKLT
modifications: 7_1C4
notes: GAT polypeptide
For B8, the Kcat was determined as 0.29 s⁻¹ and the Km was determined as 1100 µM.

B9: SEQ ID NO: 422: GAT polypeptide (protein)
chain: MIEAKPINAEDTYEIRHRILRPNQPLEACMYETDLLGGTFHLGGYYRGKLVSIASFHQAEHTELEGQKQYQLRGMATLEEYREQKAGSTLIRHAEELLRKKGADLLWCNARTSASGYYKKLGFSEQGEVYDIPPVGPHILMYKKLT
modifications: 9_13F1
notes: GAT polypeptide
For the molecule B9, the Kcat is 0.527 s⁻¹ and the Km was determined as 1100 µM.

B10: SEQ ID NO: 423: GAT polypeptide (protein)
chain: MIEVKPINAEDTYEIRHRILRPNQPLDACKYETDLLGGTFHLGGYYRGKLISIASFHQAEHPELEGQKQYQLRGMATLEGYREQKAGSTLIRHAEELLRKKGADLLWCNARTSASGYYKKLGFSEQGEVYDIPPVGPHILMYKKLT
modifications: 9_15D5
notes: GAT polypeptide
On to B10, for which the Kcat was found to be 0.46 s⁻¹ and the Km came out at 1200 µM.

B11: SEQ ID NO: 421: GAT polypeptide (protein)
chain: MIEVKPINAEDTYEIRHRILRPNQPLEACKYETDLLRGAFHLGGYYRGKLVSIASFHQAEHSELEGQKQYQLRGMATLEEYREQKAGSTLIRHAEELLRKKGADLLWCNARTSASGYYKKLGFSEQGEVYDIPPTGPHILMYKKLT
modifications: 9_13F10
notes: GAT polypeptide
Turning to B11, the Kcat was 0.578 s⁻¹ and the Km amounted to 700 µM.

B12: SEQ ID NO: 416: GAT polypeptide (protein)
chain: MIEVKPINAEDTYEIRHRILRPNQPLEACKYETDLLGGTFHLGGYYRGKLISIASFHQAEHPELEGQKQYQLRGMATLEGYREQKAGSTLIRHAEELLRKKGADLLWCNARTSASGYYKKLGFSEQGGVYDIPPIGPHILMYKKLT
modifications: 7_2A10
notes: GAT polypeptide
In the case of B12, the Kcat was 0.242 s⁻¹ and the Km worked out at 800 µM.

B13: SEQ ID NO: 427: GAT polypeptide (protein)
chain: MIEVKPINAEDTYEIRHRVLRPNQPLEACMYETDLLGGTFHLGGYYRGELVSIASFHQAEHPELEGQKQYQLRGMATLEGYREQKAGSTLIRHAEELLRKKGADLLWCNARTSASGYYKKLGFSEQGGVYDIPPVGPHILMYKKLT
modifications: 9_20F12
notes: GAT polypeptide
As for B13, the Kcat was determined as 0.63 s⁻¹ and the Km was found to be 1000 µM.

B14: SEQ ID NO: 419: GAT polypeptide (protein)
chain: MIEVKPINAEDTYEIRHRILRPNQPLEACMYETDLLGGTFHLGGYYRGKLISIASFHQAEHPELEGQKQYQLRGMATLEGYREQKVGSTLIRHAEELLRKKGADLLWCNARTSASGYYKKLGFSEQGGVYDIPPVGPHILMYKKLT
modifications: 7_5C7
notes: GAT polypeptide
Regarding B14, the Kcat was 0.745 s⁻¹ and the Km was determined as 1000 µM.

B15: SEQ ID NO: 410: GAT polypeptide (protein)
chain: MIEVKPINAEDAYEIRHRILRPNQPLEACKYETDLLGGTFHLGGYYRGKLISIASFHQAEHSELEGQKQYQLRGMATLEGYREQKAGSTLIRHAEELLRKKGADLLWCNARTSASGYYKKLGFSEQGGVYDIPPVGPHILMYKKLT
modifications: 6_6D5
notes: GAT polypeptide
For B15, the Kcat was determined as 0.922 s⁻¹ and the Km amounted to 1000 µM.

B16: SEQ ID NO: 413: GAT polypeptide (protein)
chain: MIEVKPINAEDTYEIRHRILRPNQPLEACKYETDLLGGTLHLGGYYRGKLISIASFHQAEHSELEGQKQYQLRGMATLEGYREQKAGSTLIRHAEELLRKKGADLLWCNARTSASGYYKKLGFSEQGEVYDIPPVGPHILMYKKLT
modifications: 6_9G11
notes: GAT polypeptide
With B16, the Kcat was determined as 1.31 s⁻¹ and the Km stood at 1300 µM.

B17: SEQ ID NO: 420: GAT polypeptide (protein)
chain: MIEVKPINAEDTYEIRHRILRPNQPLEACMYETDLLGGTFHLGGYYRGKLISIASFHQAEHPELEGQKQYQLRGMATLEGYREQKAGSTLIRHAEELLRKKGADLLWCNARTSASGYYKKLGFSEQGEVYDIPPIGPHILMYKKLT
modifications: 7_9C9
notes: GAT polypeptide
With B17, the Kcat was found to be 1.08 s⁻¹ and the Km turned out to be 1000 µM.

B18: SEQ ID NO: 409: GAT polypeptide (protein)
chain: MIEVKPINAEDTYEIRHRILRPNQPLEACMYETDLLGGTFHLGGYYRGKLISIASFHQAEHSELEGQKQYQLRGMATLEEYREQKAGSTLIRHAEELLRKKGADLLWCNARISASGYYKKLGFSEQGGVYDIPPVGPHILMYKKLT
modifications: 6_5G9
notes: GAT polypeptide
As to B18, the Kcat was 0.597 s⁻¹ and the Km came to 1400 µM.

B19: SEQ ID NO: 418: GAT polypeptide (protein)
chain: MIEVKPINAEDTYEIRHRILRPNQPLEACKYETDLLGGTFHLGGYYRGKLISIASFHQAEHPELEGQKQYQLRGMATLEGYREQKAGSTLIRHAEELLRKKGADLLWCNARTSASGYYKKLGFSEQGEVYDIPPVGPHILMYKKLT
modifications: 7_2D7
notes: GAT polypeptide
With B19, the Kcat is 0.915 s⁻¹ and the Km turned out to be 1100 µM.

B20: SEQ ID NO: 417: GAT polypeptide (protein)
chain: MIEVKPINAEDTYEIRHRILRPNQPLEACMYETDLLGGTFHLGGYYRGKLISIASFHQAEHSELEGQKQYQLRGMATLEGYREQKAGSTLIRHAEELLRKKGADLLWCNARTSASGYYKKLGFSEQGGVYDIPPVGPHILMYKKLT
modifications: 7_2A11
notes: GAT polypeptide
On to B20, for which the Kcat worked out at 0.78 s⁻¹ and the Km was 1100 µM.

B21: SEQ ID NO: 411: GAT polypeptide (protein)
chain: MIEVKPINAEDTYEIRHRILRPNQPLEACMYETDLLRGAFHLGGYYRGKLISIASFHQAEHSELEGQKQYQLRGMATLEGYREQKAGSTLIRHAEELLRKKGADLLWCNARTSASGYYKKLGFSEQGGVYDIPPVGPHILMYKKLT
modifications: 6_7D1
notes: GAT polypeptide
Regarding B21, the Kcat amounted to 0.328 s⁻¹ and the Km was 500 µM.

B22: SEQ ID NO: 272: GAT polypeptide (protein)
chain: MIEVKPINAEDTYEIRHRILRPNQPLEACKYETDLLGGTFHLGGYYRGKLVSIASFHQAEHSELEGQKQYQLRGMATLEEYREQKAGSTLIRHAEELLRKKGADLLWCNARTSASGYYKKLGFSEQGEVYDIPPVGPHILMYKKLT
modifications: 10_17F6
notes: GAT polypeptide
Regarding B22, the Kcat stood at 0.798 s⁻¹ and the Km turned out to be 1400 µM.
